Data on three molecules can be found in US20150291692A1 (INNATE PHARMA, published 2015).

The target of assay [1] is T1, KIR3DL1 expressed on cells (human, UniProt P43629 22-444).
T1 construct: also called HEK-293T/KIR3DL1
The assay can be described thus: flow cytometry on HEK KIR3DL1 cells (row HEK-KIR3DL1). Background: A flow cytometer gives signals particle by particle.

In assay [2] the target is T2, KIR3DL2 recombinant protein (R&D Systems) (human, UniProt P43630 28-340).
T2 construct: Bought protein; also called rec KIR3DL2; recombinant KIR3DL2-Fc fusion protein; not shown: Fc part of the bought fusion protein; not described
The assay can be described thus: SPR (Biacore T100), antibody injected over immobilised recombinant KIR3DL2, bivalent affinity, pH 7.2.

The target in assay [3] is T3, KIR3DL2 mutant M7 (L113V;T118R) (human, UniProt P43630 22-455).
T3 construct: Expressed on transfected HEK-293T cells; also called Number 7
The experiment in a line: flow cytometry on HEK-293T cells transfected with the mutant; + no significant loss of binding, ± decrease.

Assay [4] addresses T4, KIR3DL2 mutant M9 (L164M;P166L;V167A) (human, UniProt P43630 22-455).
T4 construct: Expressed on transfected HEK-293T cells; also called Number 9
Described as above.

The target in assay [5] is T5, KIR3DL2 mutant M10 (R136K;E141K) (human, UniProt P43630 22-455).
T5 construct: Expressed on transfected HEK-293T cells; also called Number 10
The description is as above.

For assay [6], the target named is T6, KIR3DL2 mutant M11A3 (N99S;H100S;Q184A) (human, UniProt P43630 22-455).
T6 construct: Expressed on transfected HEK-293T cells; also called Number 26 (11A3)
Described as above.

Assay [7] has as its target T7, KIR3DL2 mutant M11A5 (V147A;Q149S) (human, UniProt P43630 22-455).
T7 construct: Expressed on transfected HEK-293T cells; also called Number 28 (11A5)
The assay is described as above.

In assay [8] the target is T8, KIR3DL2 mutant M11A6 (I150A;M128A) (human, UniProt P43630 22-455).
T8 construct: Expressed on transfected HEK-293T cells; also called Number 29 (11A6)
The description is as above.

The target of assay [9] is T9, KIR3DL2 mutant M11 (P179T;S181T) (human, UniProt P43630 22-455).
T9 construct: Expressed on transfected HEK-293T cells; also called Number 11; mutant 11
The assay can be described thus: flow cytometry on HEK-293T cells transfected with the mutant; - means substantially complete loss of binding.

The target of assay [10] is T10, KIR3DL2 mutant M11A4 (E130S;H131S;R145S) (human, UniProt P43630 22-455).
T10 construct: Expressed on transfected HEK-293T cells; also called Number 27 (11A4)
The assay is described as above.

Assay [11] deals with T11, KIR3DL2 mutant M8 + 11 (V127I;P179T;S181T) (human, UniProt P43630 22-455).
T11 construct: Expressed on transfected HEK-293T cells; also called Number 23 (8 + 11)
Described as above.

The target in assay [12] is T12, KIR3DL2 at the surface of HUT78 Sezary Syndrome cell line (human, UniProt P43630 22-455).
T12 construct: whole, on cells; Two alleles are expressed
The experiment in a line: flow cytometry competition on HUT78 cells; naked antibody titrated against 15C11-PE (5 µg/ml).

Assay [13] addresses T13, NK cells, including normal KIR3DL2+ NK cells (Homo sapiens, UniProt P43630).
T13 construct: full-length receptor on the cell surface; also called gate NK GaM PE+; KIR3DL2 on CD4-negative NK cells in the blood of the Sezary Syndrome patient
The experiment in a line: flow cytometry of whole blood of a Sezary Syndrome patient, antibody + GaM-PE against CD4; lower gate (CD4-negative NK cells).

For assay [14], the target named is T14, KIR3DL2 on fresh Sezary Syndrome cells of patients (human, UniProt P43630 22-455).
T14 construct: whole, on cells; also called SS cells
The assay can be described thus: flow cytometry of whole blood of a Sezary Syndrome patient, antibody + GaM-PE against CD4; upper gate (CD4+ KIR3DL2+ leukemic Sezary cells).

Assay [15] has as its target T15, KIR3DL2 mutant 1 (R13W, A25T, Q27R) (human, UniProt P43630 22-455).
T15 construct: Expressed on transfected HEK-293T cells; also called Number 1
The experiment in a line: flow cytometry on HEK-293T cells transfected with the mutant.

The target in assay [16] is T16, KIR3DL2 mutant 2 (I60N, G62S) (human, UniProt P43630 22-455).
T16 construct: The running text prints 160N for I60N; Expressed on transfected HEK-293T cells; also called Number 2
The assay is described as above.

For assay [17], the target named is T17, KIR3DL2 mutant 2A2 (Q56S, E57A) (human, UniProt P43630 22-455).
T17 construct: Expressed on transfected HEK-293T cells; also called Number 34 (1 + 2 A2)
Described as above.

Assay [18] deals with T18, KIR3DL2 mutant MD0/HLA1 (F9S, S11A) (human, UniProt P43630 22-455).
T18 construct: Expressed on transfected HEK-293T cells; also called Number 31 (D0-HLA1)
The assay is described as above.

In assay [19] the target is T19, wild-type human KIR3DL2 (allele *002) expressed on transfected HEK-293T cells (human, UniProt P43630 22-455).
T19 construct: also called HEK-293T/KIR3DL2; WTaKIR3DL2
The assay can be described thus: flow cytometry on transfected HEK-293T cells.

Assay [20] concerns the target T20, KIR3DL2 mutant M8 (V127I) (human, UniProt P43630 22-455).
T20 construct: Expressed on transfected HEK-293T cells; also called Number 8; Mutant 8
The assay can be described thus: flow cytometry on HEK-293T cells transfected with the mutant; + no significant loss of binding, ± decrease.

In assay [21] the target is T10, KIR3DL2 mutant M11A4 (E130S;H131S;R145S). Described as above.
The target in assay [22] is T21, KIR3DL2 mutant M11A1 (V178A;H180S) (human, UniProt P43630 22-455).
T21 construct: Expressed on transfected HEK-293T cells; also called Number 24 (11A1); mutant 11A1
The assay can be described thus: flow cytometry on HEK-293T cells transfected with the mutant; - means substantially complete loss of binding.

Assay [23] concerns the target T22, KIR3DL2 mutant M5 + 11 (P66T;P179T;S181T) (human, UniProt P43630 22-455).
T22 construct: Expressed on transfected HEK-293T cells; also called Number 22 (5 + 11)
Described as above.

T1 sequence (P43629 22-444 limits assumed): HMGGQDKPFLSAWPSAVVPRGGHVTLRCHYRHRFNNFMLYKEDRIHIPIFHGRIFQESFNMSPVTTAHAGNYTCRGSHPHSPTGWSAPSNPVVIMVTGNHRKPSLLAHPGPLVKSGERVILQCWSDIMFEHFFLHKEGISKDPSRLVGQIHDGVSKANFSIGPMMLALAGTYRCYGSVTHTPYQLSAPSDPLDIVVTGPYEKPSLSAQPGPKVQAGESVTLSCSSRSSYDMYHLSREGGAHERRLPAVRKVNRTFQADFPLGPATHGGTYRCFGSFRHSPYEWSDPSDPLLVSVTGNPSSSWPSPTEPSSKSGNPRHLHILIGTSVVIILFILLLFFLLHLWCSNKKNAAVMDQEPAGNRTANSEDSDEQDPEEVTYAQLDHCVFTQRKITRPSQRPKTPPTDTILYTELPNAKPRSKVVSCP

B1: antibody 19H12 (antibody, mouse IgG2b, V domains shown)
VH: QIQLVQSGPELKKPGETVKISCKASGYTFTNFGMNWVKQAPGKGLKWMGWINTYTGEPTYADDFKGRFAFSLETSASTAYLQINNLKNEDMATYFCARNGNFGYYFDYWGQGTTLTVSS
VL: DVLMTQTPLSLPVSLGDQASFSCRSSQNIVHSNGNTYLEWYLQKPGQSPSLLIYKVSNRFSGVPDRFSGSGSGTDFTLKITRVEAEDLGVYYCFQGSHVPFTFGSGTKLEIK
notes: also called mo19H12
As for B1, the binding result in assay [1] is reported as “no binding”; in assay [3] it was “binds”; in [4], “binds”; in assay [5], “binds”; in assay [6], “binds”; in assay [7], “binds”. Moreover, the binding result in [8] is reported as “binds”; in [9], “no binding”; in assay [10] it was “no binding”; in assay [11], “no binding”. Also, the Kd in assay [2] was 0.49 nM. The “IC50 (read off the curve)” value in [12] is approximately 0.4 µg/mL. In addition, the “% of cells in gate NK GaM PE+” value in [13] came out at 14.9%. The “% of cells in gate CD4 GaM PE+” value in assay [14] stood at 7.5%.

B2: antibody 13H1 (antibody, V domains shown)
VH: EVQLQQSGPELVKPGASMKISCKASHYSFIGYTMNWVKQRHGKNLEWIGLINPYNGDTTYNQKFKGKASLTVDKSSSTAYMEILSLTSEDSAVYYCARENWGYPYAMDYWGQGTSVTVS
VL: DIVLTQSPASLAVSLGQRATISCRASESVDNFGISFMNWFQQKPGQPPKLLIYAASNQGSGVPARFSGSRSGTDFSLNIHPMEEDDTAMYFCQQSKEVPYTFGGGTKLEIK
Turning to B2, the binding result in assay [15] was “no binding”; in assay [16], “no binding”; in assay [17], “binds”; in [18] it was “binds”.

B3: antibody 12B11 (antibody, V domains shown)
VH: QLVQSGPELKNPGETVKISCKASGYTFTNYGMNWVKQAPGKGLKWMGWINTYTGEPTYADDFKGRFAFSLETSASTAYLQINNLKNEDTATYFCAHGPWLAYWGQGTLVTVS
VL: DIKMTQSPSSMYASLGERVTITCKASQDINVYLSWFQQKPGKSPKTLIYRAIRLVDGVPSRFSGSGSGQDYSLTISSLDYEDMGIYYCLQYDELPYTFGGGTKLEIE
Regarding B3, the binding result in [19], in [3], in [20], in assay [4], in [5] and in [6] was “binds” throughout. For the same molecule, the binding result in [21] is reported as “binds”; in assay [7], “binds”; in assay [8], “binds”; in assay [9], “no binding”; in assay [22], “no binding”; in assay [23], “no binding”. Besides, in assay [11], the binding result was “no binding”.
